B1: mAb S2B10 (antibody, V domains shown)
VH: QMQLQESGPGLVKPSQSLSLTCTVTGYSITSDYAWNWIRQFPRNKLEWMGFITYSGSTSYNPSLKSRISLTRDTSKNQFFLQLSSVTTEDTATYYCARSGANWDWFAYWGQGTLVTVSA
VL: DIQMTQSPASLAVSLGQRATISCRASESVDNYGNSFMHWYQQKPGQPPKLLIYRASKLESGIPARFSGSGSRTDFTLTINPVEADDVATYHCQQSNEDPWTFGGGTKLEIK
B2: mAb LN1F9 (antibody, V domains shown)
VH: EVKLVESGGGLVKPGGSLKLSCAASGFSFRNYAMSWVRQSPEKRLEWVAEVSSGGGYTYYPDTVTGRFTISRDNAKNILYLEMSSLRSEDTAMYYCTRDPDSSGYLAWFAYWGQGTLVTVSA
VL: DILLTQSPASLSASVGETVTITCRASENINSYLAWYQQKQGKSPQLLVYNAKTLAEGVPSRFSGSGSDTQFSLKINTLQPEDFGTYYCQHHSGTPYTFGGGTKLEIK
B3: mAb LN3D3 (antibody, V domains shown)
VH: EVKLEESGPELVKPGASVKMSCKASGYTFTNYVMHWVKQKPGQGLEWIGYVNPYNDGTQYNEKFRDKATLTSDKSSSTVYMELNSLTSEDSAVYYCTRGDYPYWVFEVWGAGTTVTVSS
VL: EIQMTQSPATLSVTPGDSVSLSCRASQSISNNLHWYQQKSHESPRLLIKYASQSISGIPSRFSGSGSGTDFTLSINNLETEDFGMYFCQHSDSWPFTFGSGTKLEIK
B4: mAb S1E2 (antibody, V domains shown)
VH: QMQLQESGPGLVKPSQSLSLTCSVTGYSITSGYYWNWIRQFSGNKLEWMGYINHDGSKNYNPSLKNRISITRDTSKNQFFLKLNSVTTEDTATYYCARDYGSYYYPMDYWGQGTSVTVSS
VL: EIVLTQSPPIMSASPGEKVTITCSASSSVTFMHWFQQKPGTSPKLWIFSTSNLASGVPARFSGSGSGTSYSLTISRMEAEDAATYYCQQRSSYPFTFGSGTKLEIK

The target of the test is full-length NiVM G on transfected cells (Nipah virus, Malaysia strain (NiVM), UniProt Q9IH62). As to the kind of experiment: flow cytometry on cells.
Take B1: the binding result is “binds”. For the molecule B2, the binding result is recorded as “binds”.

Turning to B3, the binding result is reported as “binds”. As to B4, the binding result was “binds”.
